Data on 9 molecules can be found in publication PMC7515697 (2020).

A word on the Kd: it is a measure of binding affinity in units of concentration. Low readings indicate higher affinity, high ones lower affinity. As usually defined, the stoichiometry N is a count of units in the complex or per binding partner.

Experiment [1] addresses X. albilineans Cas8f–Cas5f heterodimer (Xanthomonas albilineans). Put plainly: ITC; 250 μM AcrIF7 in the syringe titrated into 35 μM Cas8f–Cas5f in the cell; 20 mM Tris–HCl pH 7.5, 150 mM NaCl, 1 mM TCEP, 25°C; one-site binding model. (In general: In ITC the heat of successive injections is recorded.)
Experiment [2] addresses X. albilineans Cas8f(K29E)–Cas5f heterodimer (Xanthomonas albilineans). The description is as above.
Experiment [3] deals with X. albilineans Cas8f(K248E)–Cas5f heterodimer (Xanthomonas albilineans). The experiment is described as above.
Experiment [4] addresses X. albilineans Cas8f–Cas5f heterodimer (Xanthomonas albilineans). In words: ITC; as the standard ITC but with 500 mM NaCl instead of 150 mM.
For experiment [5], the target named is T1, X. albilineans Cas8f–Cas5f heterodimer (Xanthomonas albilineans).
T1 chain 1: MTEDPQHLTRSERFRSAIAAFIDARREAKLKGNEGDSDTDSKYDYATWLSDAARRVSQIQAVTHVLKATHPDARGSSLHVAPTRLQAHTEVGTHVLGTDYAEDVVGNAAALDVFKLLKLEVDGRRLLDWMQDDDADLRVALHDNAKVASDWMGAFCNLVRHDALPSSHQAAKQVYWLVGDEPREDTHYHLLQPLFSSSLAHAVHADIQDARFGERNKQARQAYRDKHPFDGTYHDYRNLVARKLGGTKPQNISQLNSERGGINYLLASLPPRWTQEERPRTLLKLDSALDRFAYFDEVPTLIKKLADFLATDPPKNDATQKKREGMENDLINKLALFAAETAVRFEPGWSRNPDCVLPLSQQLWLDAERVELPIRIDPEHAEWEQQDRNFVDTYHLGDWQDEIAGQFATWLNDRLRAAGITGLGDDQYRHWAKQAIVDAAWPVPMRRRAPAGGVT
T1 chain 2: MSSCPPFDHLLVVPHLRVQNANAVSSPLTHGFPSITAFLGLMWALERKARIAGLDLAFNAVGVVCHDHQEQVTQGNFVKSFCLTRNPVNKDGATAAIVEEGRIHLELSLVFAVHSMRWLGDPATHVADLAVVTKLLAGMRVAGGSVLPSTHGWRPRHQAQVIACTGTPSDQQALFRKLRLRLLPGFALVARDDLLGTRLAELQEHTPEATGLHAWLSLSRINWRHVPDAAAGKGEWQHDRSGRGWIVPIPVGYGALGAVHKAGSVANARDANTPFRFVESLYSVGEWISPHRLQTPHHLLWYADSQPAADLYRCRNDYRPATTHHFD
In words: ITC; 500 mM NaCl.

In the case of AcrIF7 E22K (natural protein), in experiment [1], the Kd worked out at 50 nM, the dH was -15.6 kcal/mol and the stoichiometry N came out at 0.75.

In experiment [1], AcrIF7 E46K/E47K (natural protein) showed a Kd of 46 nM, a dH of -17 kcal/mol and a stoichiometry N of 0.8.

For the molecule AcrIF7 E18K (natural protein), in experiment [1], the Kd came out at 49 nM, the dH was -19.6 kcal/mol and the stoichiometry N is 0.88.

In the case of AcrIF7 E33K/E34K (natural protein), in experiment [1], the Kd was found to be 4850 nM, the dH was -9.5 kcal/mol and the stoichiometry N came out at 0.9.

For AcrIF7 (a.a. 1–67) (natural protein), the Kd in experiment [2] turned out to be 327 nM; in experiment [1] it was 46 nM; in experiment [3], 1870 nM. The results for the dH in experiment [2], in experiment [1] and in experiment [3] were -14.5 kcal/mol, -17.1 kcal/mol and -16 kcal/mol, respectively. Further, the stoichiometry N in experiment [2] turned out to be 0.83; in experiment [1], 0.78; in experiment [3], 0.78. The molecule further came in with a fold reduction of the strength of the interaction at 500 mM NaCl against 150 mM NaCl in experiment [4] of 2.7 fold.

In experiment [1], AcrIF7 D28K/D29K (natural protein) returned a Kd of 179 nM, a dH of -12.9 kcal/mol and a stoichiometry N of 0.75.

In experiment [1], AcrIF7 D13K (natural protein) showed a Kd of 2450 nM, a dH of -14.2 kcal/mol and a stoichiometry N of 0.72.

In experiment [1], AcrIF7 D57K (natural protein) displayed a Kd of 333 nM, a dH of -12.7 kcal/mol and a stoichiometry N of 0.77.

B1: AcrIF7 (a.a. 1–67) (natural protein)
chain: MTTFTSIVTTNPDFGGFEFYVEAGQQFDDSAYEEAYGVSVPSAVVEEMNAKAAQLKDGEWLNVSHEA
Take B1: the Kd in experiment [5] came to 124 nM.
